Experimental data as given in the DeepSol protein solubility set.

assay: soluble on expression in E. coli; label from the status in PepcDB or PDB records

Sequence | soluble on expression in E. coli
MGHHHHHHSHMKNLVLKIISGSFPPVSLHYSYDLRSLVSQLFKRNPRDRPSVNSILEKGFIAKRIEKFLSPQLIAEEFCLKTFSKFGSQPIPAKRPASGQNSISVMPAQKITKPAAKYGIPLAYKKYGDKKLHEKKPLQKHKQAHQTPEKRVNTGEERRKISEEAARKRRLEFIEKEKKQKDQIISLMKAEQMKRQEKERLERINRAREQGWRNVLSAGGSGEVKAPFLGSGGTIAPSSFSSRGQYEHYHAIFDQMQQQRAEDNEAKWKREIYGRGLPERGILPGVRPGFPYGAAGHHHFPDADDIRKTLKRLKAVSKQANANRLDCDDP | not soluble
MKDVTIYHNPRCSKSRETLALVEQQGITPQVVLYLETPPSVDKLKELLQQLGFSDARQLMRTKEDLYKTLNLDDRGLTQDQLLQAMADNPKLIERPIVVTQGKARIGRPPEQVLEILK | not soluble
MSWWCCIPKSKKGENPYSHGVSGIPPEKNIRLFSYSELRSATENFNRSNKIGRGGFGTVYKGTIRNGRDVAVKVLSAESRQGVREFLTEIDVITNVKHPNLVELIGCCVEGNNRILVYEYLENSSLDRALLGSNSEPANFTWSIRSAICIGIAKGLAYLHEEIASPIVHRDIKASNILLDKLYNPKIGDFGLAKLFPDNITHISTRVAGTTGYLAPEYAWHGQLTKRADIYSFGVLVLEIVSGKSSSRSLLADDKILLEKAWELHEVGKLKELVDSEMGDYPEEEVLRYIKTALFCTQAAAARRPSMPQVVTMLSKPIRINERELTAPGYIHDYNGTVSKATNSSNSRFKHSASDTSDMFSTVVPPTVSEISPR | not soluble
MGSDKIHHHHHHVTQNSPRQLSLPVYLPDDETFQSYYPASGNDELIQKLQASAQGGLSSSLYIYGPVKSGRTHLMHAACALANDKDRRTLYIPLGIHASISPALFEGLESLELICIDDIDAIAGHPIWEEAIFHLYNRIAEHKDCHLIVSGKASPTEAGFLLPDLVSRMQWGLIYQLQPMADDEKLLALQRRAAMRGLQLSDEVGRFLLTRMARDLRTLFDVLDKLDKASMVHQRKLTIPFIKEMLRL | not soluble
MEKHLLISKGCKGWGGPLTITPGQGKKIAYITGGIRPPVVDRLSELTGWPSIDVFKNGEPPAEEIGLMVIDCGGTLRCGLYPKRGIPTINLHPTGKSGPLAEFIHEGIYVSGVTPACIEMVWPQGEGGKLGIVADDLTGATTVGVLLARSGLKTAAFFDTESFARNEVEYPAMVVSSDSRPLPKAEAQHKVSAAVKQLQARGAHYFTKRIDTTLRGGIGFEIDAMLEQLPQETVAVVVPAMPQSRRILVGGYSVIDSVALSRTDVARDVRTPVTESWVPGLLAAQTHHQVGHIALTSVMKGEGQIQQDLQEQQQRGVRVIVVDAITVDDVDAIAGAVVALNWNVLTVDPGPFTERLAVRRGLMREARSSAPASLTADGQRGSILIVAGSATPVTKKQLQYLIANDARVCHIPVDAELLVDRKNAAEIEVNRVVQHARQCVPAQHNALFVFESALTGRLLNLQEEEQRFGLAHGEAAQNINHGLGSIVREVLNCASGEIKGLYMTGGDTMVNVLKELGATGIEMIDYVIPQTDMVRIIGGDYAGLICVGKGGLTGPEDIISIIVDRIYQEAQ | not soluble
EKKQAEEALIRSENNFRTLAENSPDIISRFDRQNRHIYVNPAAEEPYGRPPEEIIGKTHSELGMDPEKVKLWESHHEKVFATGKPESMEFGYTSSQGKEYYFNTQVVPEFIDGKVTSILVISHNIT | not soluble
MGSSHHHHHHSSGLVPRGSHMRPHGDTAKKPIIGILMQKCRNKVMKNYGRYYIAASYVKYLESAGARVVPVRLDLTEKDYEILFKSINGILFPGGSVDLRRSDYAKVAKIFYNLSIQSFDDGDYFPVWGTCLGFEELSLLISGECLLTATDTVDVAMPLNFTGGQLHSRMFQNFPTELLLSLAVEPLTANFHKWSLSVKNFTMNEKLKKFFNVLTTNTDGKIEFISTMEGYKYPVYGVQWHPEKAPYEWKNLDGISHAPNAVKTAFYLAEFFVNEARKNNHHFKSESEEEKALIYQFSPIYTGNISSFQQCYIFD | soluble
MNDDALPVHSTDLLDFDEDFIKIDAAICEYDSVGHAPQRKGESAFQWASVETACLALLKKAKDVRVAIWYLRACIARRGLSGLADGVRLLAELMSAPVEELHPRALPDESPGETLLIHLGWLAGPQFLHQLGSSRFEDRDATLNDLIGGRAAAIVEDRDYCVRANTLVHDIKDSLSRIRESVAVVEQELNLSRSLDLLSVAASRLARTDAGRAESESVAGEKPAHAEAGFSPAPDPQQPAAGPGGALRSRQEVGVALERIVEYFRLHEPSHPAPIFLSRIQRMLGAGFEEVMAELYPEAASLVAQLNRPQSSIK | not soluble
MGSDKIHHHHHHMKKSKHISQSELESYLWGAATLLRGYIDAGDYKQFIFPLLFYKRLCDVYDEELADALEESGGDQEYAALPEQHRFQIPEDAHWKATRTKVKNVGKAIQDALRAIETANPDTLYGVFGDAQWTNKDRLPDRMLRELIEHFSSQTLSLSNCPEDELGVGYEFLIKKFADDSGHTAAEFYTNRTVVHLMTEMLEPKPGESIYDPTCGSAGMLLSAVAHLKRQNKEWRNLRLFGQERNLLTSAIGRMNLFLHGIEDFRIVRGDTLANPAFVEGDRLMQFDVVLANPPYSIKQWDRDAWSADPWGRNIYGTPPQGRADYAFWQHIIKSMKAKSGRCAILFPHGVLFRNEESAMREKLVAHDVVECVLGLGPNLFYNSPMEACVVICRMNKPKERRNKVLFINAVNEVTRERAQSFLTDDHIQRIVAAYQAFGDEDGFARVVGNDEIREKASNLSIPLYVRAENGNGNGNGSTETVSLKQAIANWQESSMALRESMDGLLSSLEGGLHGS | not soluble
PGWEIIHENGRPLYYNAEQKTKLHYPP | soluble
MGSDKIHHHHHHMPGKAKGRSLTAAQFNLRSDRLIAGKALRNVLPRTEQASWQPAQDRRDPIAILEDSNQGRVPELIPIRYGRMLRSPFTFLRGSAAIMAYDLATTPNTGIHVQACGDCHLLNFGLFATPERNLVFDINDFDETHPAPWEWDLKRLAVSFVIAARNNQVVDQEAESIAVSCTRSYREHLRNYSRMSPLEVWYARLEMKEIIEMAPTEKIRKRREEFAERAQKRIAEHLFPKIVTLKEGKHQFVDQPPILFHSNDPTLRNRVINGLQAYRKSLPDERRVLFDRYRLEDYATKVVGIGSVGTHCSIALFFSEENHPLILQVKEARQSVLEPYTQTNCYENQGQRVVVGQRLMQSSSDIFLGWARSDLGRDFYVRQLRDMKFSLPIDGMQAERFHRYAEFCGWALARAHAKAGDAATISGYLGKADAFDEAIAKFAVAYADQTEQDYTALVQAVASGRIEAIVEEDL | not soluble
MKFLILSVSAGGGHIHAAFALKKYIAKYLEGSQVKMLDTIKYLNPFLDKVLIGGYLKTLKVSPALFGKLYNFTEKDDNLASLSNKINEFMAYKLIPIIEDFNPDVIICTHPFPTEMVSILKSKESLKTPMLCILTDYAPHSFWIRPQVNSYVVSNSDMVDEMVRRGVNRENIYDLGIPVDPDFIRNFDKIETLNELNLSLNKKTILIMGGSLGIGKIEDIYEALSKSRANIQIIIITGNNKKLYSKLLELAEDSYVETRILGYTRDVNRYMQASDLLLTKPGGLTITEALICRVPLAVFSPIPGQEEKNEDFLLKHNLAISIRDSENCLGIIESLISNPELLQAMKDNCNKFSKPSSGKDICNLLINLINKNQKIDVNNADYRN | not soluble
MKTINSVDTKEFLNHQVANLNVFTVKIHQIHWYMRGHNFFTLGEKMDDLYSEFGEQMDEVAERLLAIGGSPFSTLKEFLENASVEEAPYTKPKTMDQLMEDLVGTLELLRDEYKQGIELTDKEGDDVTNDMLIAFKASIDKHIWMFKAFLGKAPLE | soluble
GTENLYFQGMSDVIEGRLKELGFTLPVAAAPAANYVPFTISGNLLYVSGQLPMESGKIAVTGLVGRDVDVASAQRAAELCAVNILAQVKAALNGDLSKIRRVIKLNGFVASVPEFVEQHLVINGASNLIATVLGEPGRHARAAVGMASLPFNASVEIDAIVEIDV | soluble
MGSSHHHHHHGGTGENLYFQGGSGPAREKAIVLIDGPALVHRWYHRWSYTTERYGTSLDVKQFAIKNARFMIATAHSFDPAHMAQHLLSPQTEYAHTPKHNRIIVCFDHGDGGRRQIYADYKANRLQKAVTSEFRLIERVAKKVFADEPRESLLVVPDCDAGLANLNAEADDMIATLAFFNQQNTRPTVVMSHDYDLYQLVDEAKKSYHYDIRTKHLVSERGVMERVGVPPKLVRDFKSLAGDSSDNIPGVNGIGKVRARNLLKKYGDLDGILFKGIKKETGHLGELLNEGAKMALISRQLVDFRMCPKVIKVCESFMRI | not soluble
SKRVNSCVKSDEHVLEELETEGERQLKSLLQHQLDTSVSIEECMSKKESFAPGTMYKPFGKEAAGTMTLSQFQTLHEKDQETASLRELGLNETEILIWKSHVSGEKKTKLRATPEAIQNRLQDIEERISERQRILCLPQRFAKSKQLTRREMEIEKSLFQGADRHSFLKALYYQDEPQKKNKGDPMNNLESFYQEMIMKKRLEEFQLMRGEPFASHSLVSATSVGDSGTAESPSLLQDKGKQAAQGKGPSLHVANVIDFSPEQCWTGPKKLTQPIEFVPEDEIQRNRLSEEEIRKIPMFSSYNPGEPNKVLYLKNLSPRVTERDLVSLFARFQEKKGPPIQFRMMTGRMRGQAFITFPNKEIAWQALHLVNGYKLYGKILVIEFGKNKKQRSNLQATSLISCATGSTTEISGS | not soluble
MDPEALNLEFYDKNGLDNPIHFRCDPKRIGMTLPSPDFSVDDVLELVGGNRMIEVVQVQNQGSVKMSLQEFINFYKTPQEKREVLYNVLSLEFSQTPLEDLVKSPELVRQIDWVGNQWPDALRQRWISFNGRDKKFYNPHHTFPKVQNYCLMSVANCYTDFHIDFSGTSVWYHVLKGRKVFWLIPPTETNFFIYQEFIKTVNDNAFFGKSVEKCHVAILEPGDTMLIPSGWIHAVYTPDDSLVFGGNFLHSQSCKTQLRVYQVENKLNITRKFRLPYNEELIFYVIADYVKQWTGREYVRPLRIEDAKYDYVGDKWKTAGGHHKKIEYSDYETGVELTNDMIKGDEESTKDEVKVIAMHAENSLFGYPMVSKATFSADTGLEEEADEDEVKYQETKEEMDARRDAEIDELANSNSLIFYKNRTHDFVRNKCVPDHKLPIGHEPPIYFNDDEISRISPRLLDELETLGTYIRRKARVEVAEGICQPASLINTFQTVLKKRRSELTGKKFEFNQIMPRRYTRSTMETGEYDFQPTQEVPQESARRSTRFKVDNFPDELLESEVTDKPIILPQQPSSGPLEYLPAPKDEIKEDINGFEEEFEEEYEGIGQRDDQEEEEYDAEEPEDQEEEEEDEYQAEEYTPTPVTRRSSSRRSGAKNDESEEVSVKKDKKEKMEKVEKDEKRRNSKSKKDKISKEKKKKERERIELESQLDAELRAAHGGGSSKSKKKKPEKPAFVGGLPTSSIQIDPVVSNPYNYDPRMEMMKLGTGQLKSAYRKTKNNVELHIEKNLYKIEPKRGSEEGSQSREQSMEPEHSTPVFTTFDDINEANNDHYDGQKPPTKRAKYEAISVDTYETPSSSRNKEHKEYRPSPNAAPTPSPSHHQKPKLSSPAMVSSTNEYQLRKHMSSERRSSDAGSAMKKGVYMPAMSRQDKMIAEGASAPSSRHSSISSERRPSFIPDFNSSRNSSIDTPYTPTTVTPSRSSWLPNTSSINRHSIEDDSPIDVVNDSLSPINIASSPTYPTAITPPPVTLSDLKKDMSNGRKSHSQHHDDGHKHKIPSKEAIAELKLLVGKLKAINDS | not soluble
MLPAYIRIHDQIKKEIDEGLWKIGDRLPSERDLAERFEVSRMTLRQAITLLVEEGILERRVGSGTYIASSRVQEKMRGTTSFTEIVKSQGKTPSTKLISYRRVHPSEQEIKFLDIKPKSYIIRMERVRYADDIPVVFEVTAIPEKIIKSFKKEAITKHFFKTLTDHGFVIGKSQQTISASNANEMTADYLAISRGHAVLTLAQVSYFENGMPFEYVRSQYVGERFEFYLENK | not soluble
